Reference: article PMC12578637, “Structure of a distinct β-barrel assembly machinery complex in the Bacteroidota” (Nature Microbiology, 2025)

B2: PgBamH (PGN_1735) with C-terminal 7His tag (natural protein, P. gingivalis, UniProt B2RLK9 19-455, looked up)
chain: CDDDLSPIGGSIQPPSDPVSARVDTLEFSVKTIPMGDIYNRTNYTLLGDLTDPEYGDLKADYIMQFKSPRNFKFKYPPKDGKIDSVKLSINYDSWAGDSTSIMKVSIYKINKAIPPSYYSTQELASLLDETQIIASQTFKAGNDSAFHRVRIPLPNEIGQKIYDLSVNNPSVFDTQESFYNNVLGGLYVTTTTGTGVVLSVYNTQMAIFYSYKVAADSTATASETFVNTSESYQVNHIKNSQISHLLQENDSLSCVKSPAGVMTQLTISKEQFTDAFTSNLSSSLAWQIGEAQFNISASKPSEGLMLSPPSYLLLLPQDSVRNFFEQEQTELMQPRTAFLSTIYNIKKREYRFSNISRLLMEHIKNNTEKTPEGKPYITKDLVLVLLPVKRQVAGASNSLYTSQLNNFMFPSGVKLQLGKKNKTARIGVYSMTYTDN
modifications: tri-acylated lipid anchor; O-glycosylation (7 sites)
notes: BamH (PGN_1735) of Porphyromonas gingivalis strain ATCC 33277, surface-exposed lipoprotein; 88 residues shorter than BtBamH; also called His-tagged BamH; source: C-terminally His-tagged by homologous recombination in P. gingivalis; membranes solubilised in 1% DDM; not shown: His7, C-terminal, kept

Columns and labels:
BtBamH (Bt4306) = target: T1, BtBamH (Bt4306) (B. thetaiotaomicron (endogenous in B. …, UniProt Q89ZS0 18-542, tri-acylated lipid anchor on the N-terminal cysteine)); O-glycosylation (Ser309 among the sites)); test: cryo-EM structure; BtBAM complex co-purified through BamAhis from native membranes, in DDM, 8 mg/ml; two 3D classes (3.28 Å and 3.46 Å); AF2 models docked and refined; conditions: both partners purified
T1 sequence (looked up): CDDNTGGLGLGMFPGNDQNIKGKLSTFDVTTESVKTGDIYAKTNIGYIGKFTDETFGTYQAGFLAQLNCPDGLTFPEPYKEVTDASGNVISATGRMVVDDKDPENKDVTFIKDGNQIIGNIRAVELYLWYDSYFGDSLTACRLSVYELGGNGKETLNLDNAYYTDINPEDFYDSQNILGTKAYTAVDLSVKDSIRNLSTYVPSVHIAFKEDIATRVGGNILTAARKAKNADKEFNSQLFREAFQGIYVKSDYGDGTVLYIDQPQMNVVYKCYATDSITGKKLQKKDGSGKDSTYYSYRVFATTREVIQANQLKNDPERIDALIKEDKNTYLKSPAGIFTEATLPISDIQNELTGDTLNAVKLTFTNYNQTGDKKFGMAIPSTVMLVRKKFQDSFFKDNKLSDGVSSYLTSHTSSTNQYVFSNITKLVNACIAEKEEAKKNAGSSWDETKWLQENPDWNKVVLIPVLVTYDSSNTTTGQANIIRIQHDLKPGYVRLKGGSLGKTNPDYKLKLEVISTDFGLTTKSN

[1] = target: T2, PgBamA, BamA of P. gingivalis ATCC 33277 (P. gingivalis (endogenous in P. …, UniProt B2RHH3 20-891)); test: cryo-EM structure; PgBAM complex co-purified through C-terminally His-tagged BamH from P. gingivalis membranes, in DDM, 4.9 mg/ml; 3.24 Å class without periplasmic density; AF2 models docked and refined; conditions: both partners purified
T2 construct: BamA of Porphyromonas gingivalis strain ATCC 33277; Periplasmic part only very weak, not modelled, possibly clipped by gingipains; EL3 (39 residues) has no density; source: endogenous, P. gingivalis expressing His-tagged BamH, membranes solubilised in 1% DDM
T2 sequence (looked up): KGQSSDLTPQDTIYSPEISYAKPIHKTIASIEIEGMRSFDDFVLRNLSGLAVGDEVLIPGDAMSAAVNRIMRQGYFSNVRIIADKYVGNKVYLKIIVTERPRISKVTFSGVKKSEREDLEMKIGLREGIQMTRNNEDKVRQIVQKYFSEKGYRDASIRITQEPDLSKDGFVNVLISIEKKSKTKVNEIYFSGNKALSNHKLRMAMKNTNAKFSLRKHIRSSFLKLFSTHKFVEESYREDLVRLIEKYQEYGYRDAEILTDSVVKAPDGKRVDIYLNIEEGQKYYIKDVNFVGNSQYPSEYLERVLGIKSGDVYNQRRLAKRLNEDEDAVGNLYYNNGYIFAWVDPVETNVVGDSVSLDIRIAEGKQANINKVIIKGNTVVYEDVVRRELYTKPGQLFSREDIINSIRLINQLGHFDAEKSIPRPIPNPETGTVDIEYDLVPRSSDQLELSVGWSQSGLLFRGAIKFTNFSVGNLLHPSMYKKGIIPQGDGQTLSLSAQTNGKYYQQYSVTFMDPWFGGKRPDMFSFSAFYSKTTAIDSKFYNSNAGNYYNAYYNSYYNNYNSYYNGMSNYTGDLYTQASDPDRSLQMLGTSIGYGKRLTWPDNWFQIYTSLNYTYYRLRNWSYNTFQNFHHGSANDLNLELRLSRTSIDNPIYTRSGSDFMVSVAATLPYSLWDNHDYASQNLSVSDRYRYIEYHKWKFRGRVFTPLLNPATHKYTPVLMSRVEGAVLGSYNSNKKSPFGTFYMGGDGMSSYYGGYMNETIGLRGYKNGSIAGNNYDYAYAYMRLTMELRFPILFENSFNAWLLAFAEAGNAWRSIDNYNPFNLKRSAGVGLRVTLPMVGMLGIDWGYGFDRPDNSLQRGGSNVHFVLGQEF

[2] = target: B2; test: as above; conditions: both partners purified
[3] = target: T3, BtBamA (Bt3725), B. thetaiotaomicron BamA with N-terminal His7 tag (B. thetaiotaomicron, UniProt Q8A1E1 20-885); test: affinity purification with mass spectrometry; chromosomally His7-tagged BamA as bait; B. thetaiotaomicron total membranes solubilised in TBS with 0.75% DDM and 0.75% DM; Ni IMAC, SEC in 10 mM HEPES-NaOH, 100 mM NaCl, 0.03% DDM pH 7.5; SDS-PAGE bands of pooled SEC peak fractions identified by peptide fingerprinting; IMAC elutions by quantitative proteomics against untagged wild-type cells; conditions: partners not purified
T3 sequence (looked up): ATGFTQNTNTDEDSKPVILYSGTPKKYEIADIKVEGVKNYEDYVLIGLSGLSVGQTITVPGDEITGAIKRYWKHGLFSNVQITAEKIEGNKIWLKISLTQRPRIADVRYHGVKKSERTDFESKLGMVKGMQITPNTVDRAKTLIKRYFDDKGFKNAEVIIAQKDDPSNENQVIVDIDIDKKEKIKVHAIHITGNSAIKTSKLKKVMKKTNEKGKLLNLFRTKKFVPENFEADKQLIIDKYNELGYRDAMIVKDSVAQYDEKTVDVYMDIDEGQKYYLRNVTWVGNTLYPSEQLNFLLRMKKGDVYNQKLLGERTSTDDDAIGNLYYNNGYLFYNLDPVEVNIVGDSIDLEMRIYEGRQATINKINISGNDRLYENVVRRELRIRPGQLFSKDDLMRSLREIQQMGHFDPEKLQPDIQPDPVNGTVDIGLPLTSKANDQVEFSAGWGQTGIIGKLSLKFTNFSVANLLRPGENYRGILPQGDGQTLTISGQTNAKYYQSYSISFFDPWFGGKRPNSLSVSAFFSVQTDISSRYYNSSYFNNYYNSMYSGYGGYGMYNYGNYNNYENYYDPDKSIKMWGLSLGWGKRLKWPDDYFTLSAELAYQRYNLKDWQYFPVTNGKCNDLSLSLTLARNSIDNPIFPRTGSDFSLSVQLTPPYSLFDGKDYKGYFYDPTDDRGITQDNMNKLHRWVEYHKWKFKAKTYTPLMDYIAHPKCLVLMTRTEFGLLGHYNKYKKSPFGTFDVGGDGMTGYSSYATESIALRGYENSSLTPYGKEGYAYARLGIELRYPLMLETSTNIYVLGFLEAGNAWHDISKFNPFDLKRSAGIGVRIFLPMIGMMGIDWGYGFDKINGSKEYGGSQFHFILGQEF

B1: BtBamK (Bt3949) (natural protein, UniProt Q8A0S2 21-214, looked up)
chain: CDDSKTYAEMLEDEKNAVNKFIKDKGIRIISQDEFEKNDTVTNLERNEYVALSDGVYMQIVDRGSAENKTDTFANNNEICVRYIEEDIMTRDTTCFNVFLEEWGDANQLYTNPAVFRYVAEGSYVYGTFIQMDYYWASYYQSTAVPAGWLLALPFVRNYAHVRLIVPSKVGHSSAQQYVNPYYYDIWTFSKALN
modifications: lipid anchor cysteine; O-glycosylation sites
- binding result (BtBamH (Bt4306)): binds

Binder: B2
- binding result [1]: binds

B3: BtBamI (Bt3727) (natural protein, UniProt Q8A1D9 22-493, looked up)
chain: CLDNDNEVNYSPDATIRAFELDTIGYGVNYKFTIDQVSRLIYNVDSLPVNADTIINSILIKTLTTASGIVTMKDQNDQDSIVNINDSIDLTKYVNATEKNNFLVLKVWAPNMEVQNEYKVNIRMHTMVPDSLSWGKDPIANNPVRNTAEKQKVVTLGDKILLFAQNNEIYSTAIPAGSPTDRLNYGQKWDKETTGKLPDGADVTSIIRFVDKLYLLTKNKEVYNSNDGLTWTKDEVLNSDGVSVTNLITSFSDSDGSNHKKINGIAGIVEINGEKYFSFAEKDVTWEKDIDKLTVVPAEFPINNLSADVYATESGTLNAIVVGNTEDGLDNDTATVVWASEDGKAWIPMEIPSNNNCPKLVDPSIIHYNDAFYICGKETKDDAKGFQKFYTSPTLLVWKGVDRMFMLPGILPPVKLEGGVTQHPSLHESSFKGKEVNYTMVVDRNHYIWMVGGQGIDKIWRGRVNKLGFLIQ
modifications: lipid anchor cysteine; O-glycosylation at 10 sites (Ser67 among them)
- binding result (BtBamH (Bt4306)): binds

B4: PgBamJ, BamJ of P. gingivalis ATCC 33277 (natural protein, UniProt B2RH82 25-185, looked up)
chain: CEKRPNEEKQRRHDNEVAFNAYADSTNFKKVSVDGSTAYVYMRWITNGTGTEHPIATSRVEVHYQTYRLVGNIMVDGNYNSEKPARITLYRNEKDKSITGFRIALQNMVIGDECEFIVPWYLAYGSKGVPASSANLVPIPSYSALRFIVKLSGIIPEEDKK
notes: BamJ (peptidyl-prolyl isomerase) of Porphyromonas gingivalis strain ATCC 33277; source: endogenous, P. gingivalis expressing His-tagged BamH, membranes solubilised in 1% DDM
- binding result [2]: binds

B5: BtBamD (Bt0573) (natural protein, UniProt Q8AA92 18-267, looked up)
chain: CGEYNKLLKSTDYEYKYEAAKNYFAKGQYNRSATLLNELITILKGTDKAEESLYMLGMSYYNQKDYQTAAQTFITYFNTYPRGTFTELARFHAGKSLFLDTPEPRLDQSSTYQAIQQLQMFMEYFPNSTKKQEAQDMIFALQDKLVLKELYSAKLYYNLGNYLGNNYESCVITAQNALKDYPYTDYREELSILILRARHEMAIYSVEDKKMDRYRETIDEYYAFKNEFPESKYLKEAEKIFNESQKVIKD
- binding result [3]: binds

B6: PgBamG, BamG of P. gingivalis ATCC 33277 (natural protein, UniProt B2RKY8 31-434, looked up)
chain: QNNNFTESPYTRFGLGRLGERTTISGHSMGGLGVGLRQGTYVNAVNPASYSAVDSMTFIFDFGASTGITWYAENGKKDNRKMGNIEYFAMLFPISKSIAMSAGVLPYSASGYQFGSVDQVEGGSVQYTRKYLGTGNLNDLYVGIGATPFKNFSIGANASFLFGRFTHSRQVIFSTEAPYNPVHLSTLYLKAAKFDFGMQYHLPLKSDRSLVIGAVYSPRVKMHSELTQIKNQVQNGVVVESETQEYIKGMDYYTLPHTLGIGFSYEKKDKLLLGADVQYSKWKGEKFYKSDCKFQDRIRVSLGGEIMPDINAVGIWPKVRYRFGLHGENSYLKVPTKGGVYQGYHIVGAVFGIGIPLNDRRSFVNVSLEYDRLIPKEGMIKENALKLTFGLTFNESWFKKLKLN
modifications: O-glycosylation (Ser85)
notes: BamG of Porphyromonas gingivalis strain ATCC 33277; source: endogenous, P. gingivalis expressing His-tagged BamH, membranes solubilised in 1% DDM
- binding result [1]: binds
- binding result [2]: binds

B7: PgBamK, BamK of P. gingivalis ATCC 33277 (natural protein, UniProt B2RK12 24-203, looked up)
chain: CKKSDIKSLKEMKKDERKAIESFINRMGFTIKEGHEGQSEFDPDIMYHFDNDLYMQVLDKGKEPPVLNKTKINVRMEGFMFNRERDSIYVFNSLTSGGFQESVFRYIYKYNDGDIHFELIKCTTGSNLDMFVCEGVAFPMTMLGNKARVRLIVPFRIGPESLYSRGLTGYYKEVEYVFRD
notes: BamK (peptidyl-prolyl isomerase) of Porphyromonas gingivalis strain ATCC 33277; source: endogenous, P. gingivalis expressing His-tagged BamH, membranes solubilised in 1% DDM
- binding result [2]: binds
